Patent EP3473709B1, “DNA VECTOR CONTAINING A GENE ENCODING AN EQUINE BUTYRYLCHOLINESTERASE, FOR TRANSFORMATION AND INTEGRATION INTO LEISHMANIA TARENTOLAE CHROMOSOME” (priority 2017, dated 2019)

How the values were obtained:
CCCC(=O)SCC[N+](C)(C)C = test: purified protein, by the assay type; details: pH 7.4; 25.0 °C
[1] = target: recombinant equine BChE (butyrylcholinesterase), truncated version devoid of the tetramerization domain, GA-BChE-His, Seq.2, expressed in Leishmania tarentolae (Equus caballus, UniProt Q9N1N9); test: Ellman's method enzymatic activity test (hydrolysis of S-butyrylthiocholine iodide, DTNB, absorbance at 412 nm)

Compound	Km (CCCC(=O)SCC[N+](C)(C)C)	BChE activity in the presence of different concentrations of methylene blue [1]
recombinant equine BChE (butyrylcholinesterase), truncated version devoid of the tetramerization domain, GA-BChE-His, Seq.2, expressed in Leishmania tarentolae T7-TR (Equus caballus)	20 µM	–
CN(C)c1ccc2nc3ccc(=[N+](C)C)cc-3sc2c1 [methylene blue]	–	inhibited
